In publication PMC11575137 (BMC Biology, 2024):

Molecular target: biotinylated GTP-loaded KRAS (recombinant human KRAS loaded with GppCp) (human, UniProt P01116 1-189)
Assay: BLI

Sequence of biotinylated GTP-loaded KRAS (recombinant human KRAS loaded with GppCp) (P01116 whole entry): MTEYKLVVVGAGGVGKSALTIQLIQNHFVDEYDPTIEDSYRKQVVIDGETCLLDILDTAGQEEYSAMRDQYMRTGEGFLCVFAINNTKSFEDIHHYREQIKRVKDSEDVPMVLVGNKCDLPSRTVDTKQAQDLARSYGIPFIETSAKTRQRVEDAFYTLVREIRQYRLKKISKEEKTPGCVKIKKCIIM

VVNVGGKTVK [peptide_(RAB4B)]
Kd: 84 µM

VIKVYSEDETSRALD [peptide_(GRB14)]
Kd: 87 µM

DVKVFSEDGTSKVVE [peptide_(GRB10)]
Kd: 78 µM

IVRVFLPNKQRTVVP [peptide_(BRAF)]
Kd: 150 µM
